From patent US9994628B2, “Peptides and combination of peptides for use in immunotherapy against various tumors” (IMMATICS BIOTECHNOLOGIES GMBH, priority 2015, dated 2018) come the findings set out here.

The assay addresses HLA-A*02:01 (Homo sapiens, UniProt P04439, D140Y/D185E/D98H/E176V/E277Q/G131W/G231S/I119V/I121R/I166T/I218V/L300P/L318F/N151K/N90K/P208A/P217A/Q86G/Q94H/R138H/R169H/T345S). The assay can be described thus: MHC binding assay: UV-ligand exchange and β2m ELISA (peptide exchange yield, Table 7). The note with it: binding of HLA-class I restricted peptides to HLA-A*02:01, UV-ligand exchange. The source says:
Candidate peptides for T cell based therapies according to the present invention were further tested for their MHC binding capacity (affinity). The individual peptide-MHC complexes were produced by UV-ligand exchange, where a UV-sensitive peptide is cleaved upon UV-irradiation, and exchanged with the peptide of interest as analyzed. Only peptide candidates that can effectively bind and stabilize the peptide-receptive MHC molecules prevent dissociation of the MHC complexes. To determine the yield of the exchange reaction, an ELISA was performed based on the detection of the light chain (β2 m) of stabilized MHC complexes. The assay was performed as generally described in Rodenko et al. (Rodenko et al., 2006).
96 well MAXISorp plates (NUNC) were coated over night with 2 ug/ml streptavidin in PBS at room temperature, washed 4× and blocked for 1 h at 37° C. in 2% BSA containing blocking buffer. Refolded HLA-A*02:01/MLA-001 monomers served as standards, covering the range of 15-500 ng/ml. Peptide-MHC monomers of the UV-exchange reaction were diluted 100 fold in blocking buffer. Samples were incubated for 1 h at 37° C., washed four times, incubated with 2 ug/ml HRP conjugated anti-β2 m for 1 h at 37° C., washed again and detected with TMB solution that is stopped with […]. Absorption was measured at 450 nm. Candidate peptides that show a high exchange yield (preferably higher than 50%, most preferred higher than 75%) are generally preferred for a generation and production of antibodies or fragments thereof, and/or T cell receptors or fragments thereof, as they show sufficient avidity to the MHC molecules and prevent dissociation of the MHC complexes.
On the technique in general: In an ELISA, binding on a coated surface is turned into a signal by an enzyme label.
In the case of “234 (VLLNEILEQV; listed as Homo sapiens) [compound 234]”, the “Peptide exchange (MHC class I binding score, peptide exchange yield)” value (from here on “Peptide exchange”) is reported as “++++ (≥75% = ++++)”.

For “140 (FLDSQITTV; listed as Homo sapiens) [compound 140]”, the “Peptide exchange” value is listed as “+++ (≥50% = +++)”.

As for “40 (KIWEELSVLEV; listed as Homo sapiens) [compound 40]”, the “Peptide exchange” value is listed as “+++ (≥50% = +++)”.

In the case of “206 (GLDAFRIFL; listed as Homo sapiens) [compound 206]”, the “Peptide exchange” value is “++++ (≥75% = ++++)”.

Turning to “90 (AILNVDEKNQV; listed as Homo sapiens) [compound 90]”, the “Peptide exchange” value is on record as “++ (≥20% = ++)”.

As for “258 (QLVQRVASV; listed as Homo sapiens) [compound 258]”, the “Peptide exchange” value was “++ (≥20% = ++)”.

As for “105 (AMLASQTEA; listed as Homo sapiens) [compound 105]”, the “Peptide exchange” value was “++ (≥20% = ++)”.

Regarding “272 (FVMEGEPPKL; listed as Homo sapiens) [compound 272]”, the “Peptide exchange” value was “++ (≥20% = ++)”.

Regarding “233 (SLFESLEYL; listed as Homo sapiens) [compound 233]”, the “Peptide exchange” value is “+++ (≥50% = +++)”.

As for “216 (ALSTVTPRI; listed as Homo sapiens) [compound 216]”, the “Peptide exchange” value is reported as “++ (≥20% = ++)”.

For “3 (RVIDDSLVVGV; listed as Homo sapiens) [compound 3]”, the “Peptide exchange” value is “+++ (≥50% = +++)”.

Turning to “121 (ALYVQAPTV; listed as Homo sapiens) [compound 121]”, the “Peptide exchange” value is given as “++ (≥20% = ++)”.

For “52 (TIGIPFPNV; listed as Homo sapiens) [compound 52]”, the “Peptide exchange” value is recorded as “++ (≥20% = ++)”.

Turning to “248 (VLMQDSRLYL; listed as Homo sapiens) [compound 248]”, the “Peptide exchange” value is listed as “+++ (≥50% = +++)”.

For “267 (YLLDMPLWYL; listed as Homo sapiens) [compound 267]”, the “Peptide exchange” value is “+++ (≥50% = +++)”.

In the case of “99 (TLFGIQLTEA; listed as Homo sapiens) [compound 99]”, the “Peptide exchange” value is recorded as “+++ (≥50% = +++)”.

Turning to “270 (TLLTFFHEL; listed as Homo sapiens) [compound 270]”, the “Peptide exchange” value was “+++ (≥50% = +++)”.

Consider “249 (YLYQILQGI; listed as Homo sapiens) [compound 249]”, for which the “Peptide exchange” value is “+++ (≥50% = +++)”.

In the case of “280 (HLWGHALFL; listed as Homo sapiens) [compound 280]”, the “Peptide exchange” value is given as “+++ (≥50% = +++)”.

With “143 (MLWESIMRV; listed as Homo sapiens) [compound 143]”, the “Peptide exchange” value was “+++ (≥50% = +++)”.

As to “265 (FLLDKPQDLSI; listed as Homo sapiens) [compound 265]”, the “Peptide exchange” value was “+++ (≥50% = +++)”.

Consider “141 (NIDINNNEL; listed as Homo sapiens) [compound 141]”, for which the “Peptide exchange” value is “++ (≥20% = ++)”.

“225 (FLPQPVPLSV; listed as Homo sapiens) [compound 225]”: the “Peptide exchange” value is recorded as “+++ (≥50% = +++)”.

As for “184 (ALDSTIAHL; listed as Homo sapiens) [compound 184]”, the “Peptide exchange” value is listed as “++ (≥20% = ++)”.

In the case of “269 (GLLDCPIFL; listed as Homo sapiens) [compound 269]”, the “Peptide exchange” value is given as “++++ (≥75% = ++++)”.

Take “200 (IMPTFDLTKV; listed as Homo sapiens) [compound 200]”: the “Peptide exchange” value is recorded as “+++ (≥50% = +++)”.

In the case of “97 (KLFEKSTGL; listed as Homo sapiens) [compound 97]”, the “Peptide exchange” value was “+++ (≥50% = +++)”.

In the case of “74 (GLAFLPASV; listed as Homo sapiens) [compound 74]”, the “Peptide exchange” value is “++ (≥20% = ++)”.

Consider “264 (TLHDQVHLL; listed as Homo sapiens) [compound 264]”, for which the “Peptide exchange” value is on record as “++ (≥20% = ++)”.

For “64 (SLYAGSNNQV; listed as Homo sapiens) [compound 64]”, the “Peptide exchange” value was “++ (≥20% = ++)”.

In the case of “241 (KQFEGTVEI; listed as Homo sapiens) [compound 241]”, the “Peptide exchange” value was “+++ (≥50% = +++)”.

As to “153 (KLVELEHTL; listed as Homo sapiens) [compound 153]”, the “Peptide exchange” value is on record as “+++ (≥50% = +++)”.

In the case of “138 (GIINKLVTV; listed as Homo sapiens) [compound 138]”, the “Peptide exchange” value is listed as “++ (≥20% = ++)”.

Turning to “175 (SLLDLVQSL; listed as Homo sapiens) [compound 175]”, the “Peptide exchange” value was “+++ (≥50% = +++)”.

As for “10 (QLIEKNWLL; listed as Homo sapiens) [compound 10]”, the “Peptide exchange” value is listed as “+++ (≥50% = +++)”.

“149 (NMADGQLHQV; listed as Homo sapiens) [compound 149]”: the “Peptide exchange” value is recorded as “++ (≥20% = ++)”.

For the substance “227 (SEMEELPSV; listed as Homo sapiens) [compound 227]”, the “Peptide exchange” value is “+ (≥10% = +)”.

With “224 (LLFDWSGTGRADA; listed as Homo sapiens) [compound 224]”, the “Peptide exchange” value is “+++ (≥50% = +++)”.

For the substance “131 (SLYPHFTLL; listed as Homo sapiens) [compound 131]”, the “Peptide exchange” value is given as “+++ (≥50% = +++)”.

With “83 (GLLENSPHL; listed as Homo sapiens) [compound 83]”, the “Peptide exchange” value is “++ (≥20% = ++)”.

For “20 (ALVEKGEFAL; listed as Homo sapiens) [compound 20]”, the “Peptide exchange” value is “++ (≥20% = ++)”.

With “122 (SIIDTELKV; listed as Homo sapiens) [compound 122]”, the “Peptide exchange” value is “+++ (≥50% = +++)”.

For “94 (YLDEVAFML; listed as Homo sapiens) [compound 94]”, the “Peptide exchange” value is on record as “+++ (≥50% = +++)”.

Turning to “176 (VQSGLRILL; listed as Homo sapiens) [compound 176]”, the “Peptide exchange” value is reported as “++ (≥20% = ++)”.

With “212 (MTLSEIHAV; listed as Homo sapiens) [compound 212]”, the “Peptide exchange” value is listed as “++ (≥20% = ++)”.

For the substance “54 (YLVPGLVAA; listed as Homo sapiens) [compound 54]”, the “Peptide exchange” value is recorded as “+++ (≥50% = +++)”.

Consider “16 (SLADLSLLL; listed as Homo sapiens) [compound 16]”, for which the “Peptide exchange” value is “+++ (≥50% = +++)”.

For “158 (YLDPLWHQL; listed as Homo sapiens) [compound 158]”, the “Peptide exchange” value is recorded as “+++ (≥50% = +++)”.

Take “217 (LLWPSSVPA; listed as Homo sapiens) [compound 217]”: the “Peptide exchange” value is reported as “+++ (≥50% = +++)”.

Regarding “49 (KLIGNIHGNEV; listed as Homo sapiens) [compound 49]”, the “Peptide exchange” value was “++ (≥20% = ++)”.

In the case of “203 (FLFVDPELV; listed as Homo sapiens) [compound 203]”, the “Peptide exchange” value is recorded as “++ (≥20% = ++)”.

On to “220 (ALSELERVL; listed as Homo sapiens) [compound 220]”, for which the “Peptide exchange” value was “+++ (≥50% = +++)”.

Regarding “61 (ALYPKEITL; listed as Homo sapiens) [compound 61]”, the “Peptide exchange” value is recorded as “+++ (≥50% = +++)”.

Regarding “136 (LLWDAPAKC; listed as Homo sapiens) [compound 136]”, the “Peptide exchange” value is given as “+++ (≥50% = +++)”.

As for “119 (SLIEESEEL; listed as Homo sapiens) [compound 119]”, the “Peptide exchange” value is recorded as “++ (≥20% = ++)”.

With “211 (LLTTVLINA; listed as Homo sapiens) [compound 211]”, the “Peptide exchange” value is “+++ (≥50% = +++)”.

“261 (GLAALAVHL; listed as Homo sapiens) [compound 261]”: the “Peptide exchange” value was “+++ (≥50% = +++)”.
